Article doi:10.1101/2021.09.20.461157 (bioRxiv, 2021)

Biological target: the molecule itself
Assay: cryo-EM structure

B1: Mouse EHD4 (residues 22-541, EHD4^ΔN) (domain or fragment, UniProt Q9EQP2 22-541, looked up)
chain: QTVTGGLRSLYQRKVLPLEEAYRFHEFHSPALEDADFENKPMILLVGQYSTGKTTFIRYLLEQDFPGMRIGPEPTTDSFIAVMYGETEGSTPGNALVVDPKKPFRKLSRFGNAFLNRFMCSQLPNQVLKSISIIDSPGILSGEKQRISRGYDFCQVLQWFAERVDRIILLFDAHKLDISDEFSEAIKAFRGQDDKIRVVLNKADQVDTQQLMRVYGALMWSLGKVINTPEVLRVYIGSFWAQPLQNTDNRRLFEAEAQDLFRDIQSLPQKAAVRKLNDLIKRARLAKVHAYIISYLKKEMPNMFGKENKKRELIYRLPEIYVQLQREYQISAGDFPEVKAMQEQLENYDFTKFHSLKPKLIEAVDNMLTNKISSLMGLISQEEMNMPTQMVQGGAFDGTTEGPFNQGYGEGAKEGADEEEWVVAKDKPVYDELFYTLSPINGKISGVNAKKEMVTSKLPNSVLGKIWKLADCDCDGMLDEEEFALAKHLIKIKLDGYELPNSLPPHLVPPSHRKSLPKAD
Q: Does B1 bind?
A: Result: binds
